From patent US20190201491A1 come the findings set out here.

B1: bFGF-21-Q108-30KPEG G170S (ligand)
chain: HPIPDSSPLLQFGGQVRQRYLYTDDAQETEAHLEIRADGTVVGAARQSPESLLELKALKPGVIQILGVKTSRFLCQGPDGKLYGSLHFDPKACSFRELLLEDGYNVY[Phe(4-Ac)](PEG 30 kDa)SETLGLPLRLPPQRSSNRDPAPRGPARFLPLPGLPAAPPDPPGILAPEPPDVGSSDPLSMVSPSYGRSPSYTS
B2: bFGF-21-R131-30KPEG (ligand)
chain: HPIPDSSPLLQFGGQVRQRYLYTDDAQETEAHLEIRADGTVVGAARQSPESLLELKALKPGVIQILGVKTSRFLCQGPDGKLYGSLHFDPKACSFRELLLEDGYNVYQSETLGLPLRLPPQRSSNRDPAP[Phe(4-Ac)](PEG 30 kDa)GPARFLPLPGLPAAPPDPPGILAPEPPDVGSSDPLSMVEPSYGRSPSYTS
modifications: not fully specified; also: PEG: linear aminooxy-PEG
B3: bFGF-21-Q108-30KPEG G170D (ligand)
chain: HPIPDSSPLLQFGGQVRQRYLYTDDAQETEAHLEIRADGTVVGAARQSPESLLELKALKPGVIQILGVKTSRFLCQGPDGKLYGSLHFDPKACSFRELLLEDGYNVY[Phe(4-Ac)](PEG 30 kDa)SETLGLPLRLPPQRSSNRDPAPRGPARFLPLPGLPAAPPDPPGILAPEPPDVGSSDPLSMVDPSYGRSPSYTS
B4: bFGF-21-Q108pAF-30KPEG-G170E (ligand)
chain: HPIPDSSPLLQFGGQVRQRYLYTDDAQETEAHLEIRADGTVVGAARQSPESLLELKALKPGVIQILGVKTSRFLCQGPDGKLYGSLHFDPKACSFRELLLEDGYNVY[Phe(4-Ac)](PEG 30 kDa)SETLGLPLRLPPQRSSNRDPAPRGPARFLPLPGLPAAPPDPPGILAPEPPDVGSSDPLSMVEPSYGRSPSYTS
B5: bFGF-21-G77-30KPEG (ligand)
chain: HPIPDSSPLLQFGGQVRQRYLYTDDAQETEAHLEIRADGTVVGAARQSPESLLELKALKPGVIQILGVKTSRFLCQ[Phe(4-Ac)](PEG 30 kDa)PDGKLYGSLHFDPKACSFRELLLEDGYNVYQSETLGLPLRLPPQRSSNRDPAPRGPARFLPLPGLPAAPPDPPGILAPEPPDVGSSDPLSMVEPSYGRSPSYTS
modifications: not fully specified; also: PEG: linear aminooxy-PEG
B6: bFGF-21-Q108-30KPEG (ligand)
chain: HPIPDSSPLLQFGGQVRQRYLYTDDAQETEAHLEIRADGTVVGAARQSPESLLELKALKPGVIQILGVKTSRFLCQGPDGKLYGSLHFDPKACSFRELLLEDGYNVY[Phe(4-Ac)](PEG 30 kDa)SETLGLPLRLPPQRSSNRDPAPRGPARFLPLPGLPAAPPDPPGILAPEPPDVGSSDPLSMVGPSYGRSPSYTS
B7: bFGF-21-Q108-30KPEG G170A (ligand)
chain: HPIPDSSPLLQFGGQVRQRYLYTDDAQETEAHLEIRADGTVVGAARQSPESLLELKALKPGVIQILGVKTSRFLCQGPDGKLYGSLHFDPKACSFRELLLEDGYNVY[Phe(4-Ac)](PEG 30 kDa)SETLGLPLRLPPQRSSNRDPAPRGPARFLPLPGLPAAPPDPPGILAPEPPDVGSSDPLSMVAPSYGRSPSYTS
B8: bFGF-21-K91-30KPEG (ligand)
chain: HPIPDSSPLLQFGGQVRQRYLYTDDAQETEAHLEIRADGTVVGAARQSPESLLELKALKPGVIQILGVKTSRFLCQGPDGKLYGSLHFDP[Phe(4-Ac)](PEG 30 kDa)ACSFRELLLEDGYNVYQSETLGLPLRLPPQRSSNRDPAPRGPARFLPLPGLPAAPPDPPGILAPEPPDVGSSDPLSMVEPSYGRSPSYTS
modifications: not fully specified; also: PEG: linear aminooxy-PEG

[ ]: non-standard residue; d: D form. Phe(4-Ac) = CC(=O)c1ccc(C[C@H](N)C(=O)O)cc1

For the test, the target named is beta Klotho and FGFR1c (Fibroblast Growth Factor Receptor isoform 1c) expressed on the cell surface of a proprietary stable cell line (HEK293). As to the kind of experiment: cell-based or functional assay.
B1 showed an Average Fold Loss Potency Relative to bFGF-21-Q108-30KPEG, Elk1 luciferase reporter assay of 0.8 fold.
In turn, B2 yielded an EC50 (ng/mL), STEADY-GLO Elk1 luciferase reporter assay of 556 ng/mL; an Emax (%) relative to WT bFGF-21, Elk1 luciferase reporter assay of 38%; a Fold loss potency relative to WT bFGF21, Elk1 luciferase reporter assay of 14 fold.
B3 yielded an Average Fold Loss Potency Relative to bFGF-21-Q108-30KPEG, Elk1 luciferase reporter assay of 8.7 fold.
Regarding B4, the Average Fold Loss Potency Relative to bFGF-21-Q108-30KPEG, Elk1 luciferase reporter assay stood at 3.7 fold.
In turn, B5 returned an EC50 (ng/mL), STEADY-GLO Elk1 luciferase reporter assay of 347 ng/mL; an Emax (%) relative to WT bFGF-21, Elk1 luciferase reporter assay of 50%; a Fold loss potency relative to WT bFGF21, Elk1 luciferase reporter assay of 9 fold.
For B6, the Average Fold Loss Potency Relative to bFGF-21-Q108-30KPEG, Elk1 luciferase reporter assay stood at 1 fold; the EC50 (ng/mL), STEADY-GLO Elk1 luciferase reporter assay was determined as 147 ng/mL; the Emax (%) relative to WT bFGF-21, Elk1 luciferase reporter assay worked out at 73%; the Fold loss potency relative to WT bFGF21, Elk1 luciferase reporter assay was 4 fold.
B7 yielded an Average Fold Loss Potency Relative to bFGF-21-Q108-30KPEG, Elk1 luciferase reporter assay of 1.7 fold.
In the case of B8, the EC50 (ng/mL), STEADY-GLO Elk1 luciferase reporter assay turned out to be 537 ng/mL; the Emax (%) relative to WT bFGF-21, Elk1 luciferase reporter assay turned out to be 57%; the Fold loss potency relative to WT bFGF21, Elk1 luciferase reporter assay came to 14 fold.
